Data reported in paper PMC10914744, “Key homeobox transcription factors regulate the development of the firefly’s adult light organ and bioluminescence”.

B1: biotin-WT AlLuc1 promoter probe (dsDNA)
DNA 1: ATACATTAAAGTATCTAATAAAAATTAATGGTTCATTAAGATATATAAAAAACA
DNA 2: TGTTTTTTATATATCTTAATGAACCATTAATTTTTATTAGATACTTTAATGTAT
B2: ABD-B binding site mutation probe (dsDNA)
DNA 1: ATACATTAAAGTATCCGGCGGGAACCGGCAATCTGCCGGGATATATAAAAAACA
DNA 2: TGTTTTTTATATATCCCGGCAGATTGCCGGTTCCCGCCGGATACTTTAATGTAT

Assays:
[1] = biological target: T1, AlABD-B (Aquatica leii, UniProt A0AAN7SB49 90-481); experiment: EMSA; poly(dI-dC); signal significantly reduced by unlabeled WT probe; LightShift EMSA kit; 2.0 ug protein (stored in PBS, 10% glycerol), 0.2 pmol probe, 2 ug/uL poly(dI-dC), 60 min at room temperature, native 6% PAGE; binding buffer salt and pH not stated; conditions: protein: recombinant; tags: His (pET28a, Ni-NTA); label: biotin; blunt
[2] = biological target: T1, AlABD-B; experiment: EMSA; poly(dI-dC); no significant complex detected; LightShift EMSA kit; 2.0 ug protein (stored in PBS, 10% glycerol), 0.2 pmol probe, 2 ug/uL poly(dI-dC), 60 min at room temperature, native 6% PAGE; binding buffer salt and pH not stated; conditions: protein: recombinant; tags: His (pET28a, Ni-NTA); blunt

T1 sequence (A0AAN7SB49 entry or part of it): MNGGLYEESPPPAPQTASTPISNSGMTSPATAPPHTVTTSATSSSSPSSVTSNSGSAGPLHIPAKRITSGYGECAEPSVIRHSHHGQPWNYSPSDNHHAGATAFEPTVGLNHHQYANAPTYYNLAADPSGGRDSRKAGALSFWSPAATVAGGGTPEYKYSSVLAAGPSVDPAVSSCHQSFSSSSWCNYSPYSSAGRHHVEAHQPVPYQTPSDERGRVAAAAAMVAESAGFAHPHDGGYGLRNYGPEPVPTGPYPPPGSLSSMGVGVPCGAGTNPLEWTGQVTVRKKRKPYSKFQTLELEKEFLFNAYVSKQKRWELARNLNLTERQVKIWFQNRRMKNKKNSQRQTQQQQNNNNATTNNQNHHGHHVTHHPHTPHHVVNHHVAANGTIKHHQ

Binder	binding result [1]	binding result [2]
B1	binds	
B2		no binding
